Our source for the Kd, binding result and binding signal values is article PMC12480911, “Visualization of liquid-liquid phase transitions using a tiny G-quadruplex binding protein”.

For data set [1], the target named is T1, SERF2 (human, UniProt P84101 1-59).
T1 sequence: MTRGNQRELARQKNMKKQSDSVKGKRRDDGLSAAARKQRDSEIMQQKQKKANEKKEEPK
The experiment in a line: fluorescence polarization. The conditions noted are these: stated as sub-micromolar, FP/anisotropy: 20 mM NaPi pH 7.4, 100 mM KCl, 25 C (20-200 nM probe), NMR: same buffer, 4 C. For orientation: Fluorescence polarisation rises when a labelled molecule tumbles more slowly, as on binding a larger partner.

For data set [2], the target named is T1, SERF2. As to the kind of experiment: NMR (HSQC, imino 1H, STD); FP/anisotropy: 20 mM NaPi pH 7.4, 100 mM KCl, 25 C (20-200 nM probe); NMR: same buffer, 4 C. To be noted: protein: recombinant; tags: His-SUMO removed; AF488-labeled in some assays; dimeric G4 (2 strands).
In data set [3] the target is T1, SERF2. As to the kind of experiment: fluorescence polarization; 100 mM KCl; FP/anisotropy: 20 mM NaPi pH 7.4, 100 mM KCl, 25 C (20-200 nM probe); NMR: same buffer, 4 C. To be noted: protein: recombinant, tags: His-SUMO removed, AF488-labeled in some assays.
For data set [4], the target named is T1, SERF2. As to the kind of experiment: fluorescence polarization; stated as sub-micromolar; FP/anisotropy: 20 mM NaPi pH 7.4, 100 mM KCl, 25 C (20-200 nM probe); NMR: same buffer, 4 C. The conditions noted are these: protein: recombinant; tags: His-SUMO removed; AF488-labeled in some assays; label: 6-FAM; G4.
Data set [5] deals with T1, SERF2. As to the kind of experiment: fluorescence polarization/anisotropy; stated as sub-micromolar; FP/anisotropy: 20 mM NaPi pH 7.4, 100 mM KCl, 25 C (20-200 nM probe); NMR: same buffer, 4 C. To be noted: protein: recombinant; tags: His-SUMO removed; AF488-labeled in some assays; label: Cy3; G4.
Data set [6] deals with T2, SERF2 N-terminal domain (human, UniProt P84101 1-32).
T2 chain: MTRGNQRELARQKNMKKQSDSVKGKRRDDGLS
As to the kind of experiment: fluorescence polarization; 100 mM KCl; FP/anisotropy: 20 mM NaPi pH 7.4, 100 mM KCl, 25 C (20-200 nM probe); NMR: same buffer, 4 C. To be noted: protein: recombinant; label: 6-FAM (FP); unlabeled (NMR, EMSA); intramolecular G4.

Data set [7] concerns the target T3, SERF2 K25A (human, UniProt P84101 1-59, K25A).
T3 sequence: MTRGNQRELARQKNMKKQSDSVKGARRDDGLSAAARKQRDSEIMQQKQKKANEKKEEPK
As to the kind of experiment: EMSA; 5 uM each; minimally affected; FP/anisotropy: 20 mM NaPi pH 7.4, 100 mM KCl, 25 C (20-200 nM probe); NMR: same buffer, 4 C. The conditions noted are these: protein: recombinant; tags: His-SUMO removed; label: 6-FAM (FP); unlabeled (NMR, EMSA); intramolecular G4. (A gel shift assay detects complexes by their altered migration in electrophoresis.)

Data set [8] concerns the target T4, SERF2 K23A (human, UniProt P84101 1-59, K23A).
T4 sequence: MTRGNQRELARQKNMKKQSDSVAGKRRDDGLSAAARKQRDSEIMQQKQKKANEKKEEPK
The description is as above. The conditions noted are these: protein: recombinant; tags: His-SUMO removed; label: 6-FAM (FP); unlabeled (NMR, EMSA); intramolecular G4.

The target of data set [9] is T1, SERF2. As to the kind of experiment: EMSA; 10 uM RNA, 5-40 uM SERF2; FP/anisotropy: 20 mM NaPi pH 7.4, 100 mM KCl, 25 C (20-200 nM probe); NMR: same buffer, 4 C. The conditions noted are these: protein: recombinant; tags: His-SUMO removed; AF488-labeled in some assays; G4.

As usually defined, the Kd is the concentration at which binding is half-saturated. For TERRA60, in [1] (AF488-SERF2, similar to TERRA23), the Kd was below 1000 nM.
In [1], polyG showed a Kd below 1000 nM.

B1: TERRA12 (structured_RNA)
RNA: UUAGGGUUAGGG
With B1, the binding result in data set [2] is recorded as “binds”.

B2: Mark2 rG4 (structured_RNA)
RNA: GAAGGGGAGGGGGCUGGGGGGGGGCAGGG
As for B2, in data set [3] (label: 6-FAM (FP), G4), the Kd worked out at 4500 ± 500 nM.

B3: (G4C2)4 RNA (structured_RNA)
RNA: GGGGCCGGGGCCGGGGCCGGGGCC
With B3, the Kd in [3] (label: 6-FAM, G4) worked out at 880 ± 100 nM.

B4: (GGA)7 (structured_RNA)
RNA: GGAGGAGGAGGAGGAGGAGGA
Regarding B4, in data set [4], the Kd is below 1000 nM.

B5: (AGG)5 (structured_RNA)
RNA: AGGAGGAGGAGGAGG
For B5, in [5], the Kd was below 1000 nM.

B6: (UG4U)6 (structured_RNA)
RNA: UGGGGUUGGGGUUGGGGUUGGGGUUGGGGUUGGGGU
B6: the Kd in [3] (label: 6-FAM, G4) was 730 ± 250 nM.

B7: TERRA23 (structured_RNA)
RNA: UAGGGUUAGGGUUAGGGUUAGGG
B7: the binding signal in [6] was ~10 fold weaker than full length. The Kd in data set [3] (label: 6-FAM (FP), unlabeled (NMR, EMSA), intramolecular G4) worked out at 300 ± 20 nM. Moreover, the binding result in data set [7] and in [8] was “binds” each time.

B8: (GGGA)4 (structured_RNA)
RNA: GGGAGGGAGGGAGGGA
As to B8, the Kd in data set [4] is below 1000 nM.

B9: Stxbp5 rG4 (structured_RNA)
RNA: GGGAAGGGAAGGGGAGUGGG
With B9, in data set [9], the binding result is listed as “binds”.
